These results are taken from the supplement of paper PMC10567573.

To fix the notation:
B1: NP_002788.1 (parent)
chain: DGWIRVSSDNVADLHEKYSGSTP
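Also: lentivirally expressed fusion library, cells FACS-sorted into six equal-sized GFP/DsRed ratio bins, PSI computed from sequencing read fractions per bin weighted by bin number.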

The variants in the data set derive from B1. As to the kind of experiment: protein stability index of a GFP-peptide fusion (GPS, HEK-293T) (PSI 1-6); higher = more stable. To be noted: c terminus: native.
For the variant DGWIRVSSDNVADLHEDYSGSTP, the protein stability index turned out to be 3.58.

With DGWIRVSSDNVADLHECYSGSTP, the protein stability index was found to be 3.04.

On to DGWIRVSSDNVADLHEMYSGSTP, for which the protein stability index was 3.19.

Take DGWIRVSSDNVADLHEWYSGSTP: the protein stability index was 2.97.

DGWIRVSSDNVADLHETYSGSTP: the protein stability index worked out at 3.27.

On to DGWIRVSSDNVADLHEVYSGSTP, for which the protein stability index amounted to 3.18.

For the variant DGWIRVSSDNVADLHEFYSGSTP, the protein stability index came to 3.36.

Take DGWIRVSSDNVADLHEQYSGSTP: the protein stability index came out at 3.16.

For the variant DGWIRVSSDNVADLHEIYSGSTP, the protein stability index worked out at 3.12.

As to DGWIRVSSDNVADLHEAYSGSTP, the protein stability index is 3.52.

For the variant DGWIRVSSDNVADLHEKGSGSTP, the protein stability index came to 3.6.

Consider DGWIRVSSDNVADLHEKISGSTP, for which the protein stability index is 3.11.

As to DGWIRVSSDNVADLHEKTSGSTP, the protein stability index was 3.66.

Turning to DGWIRVSSDNVADLHEKKSGSTP, the protein stability index stood at 4.17.

On to DGWIRVSSDNVADLHEKRSGSTP, for which the protein stability index was determined as 3.3.

For the variant DGWIRVSSDNVADLHEKSSGSTP, the protein stability index is 3.6.

DGWIRVSSDNVADLHEKLSGSTP: the protein stability index was 2.69.

As to DGWIRVSSDNVADLHEKQSGSTP, the protein stability index was found to be 3.46.

Regarding DGWIRVSSDNVADLHEKMSGSTP, the protein stability index was found to be 2.92.

Take DGWIRVSSDNVADLHEKWSGSTP: the protein stability index worked out at 2.81.

For the variant DGWIRVSSDNVADLHEKASGSTP, the protein stability index worked out at 3.39.

Take DGWIRVSSDNVADLHEKVSGSTP: the protein stability index was 3.22.

For the variant DGWIRVSSDNVADLHEKESGSTP, the protein stability index was found to be 3.23.

As for DGWIRVSSDNVADLHEKNSGSTP, the protein stability index amounted to 3.13.

Turning to DGWIRVSSDNVADLHEKFSGSTP, the protein stability index was found to be 2.44.

Turning to DGWIRVSSDNVADLHEKHSGSTP, the protein stability index worked out at 2.68.

In the case of DGWIRVSSDNVADLHEKDSGSTP, the protein stability index was 3.64.

Consider DGWIRVSSDNVADLHEKPSGSTP, for which the protein stability index is 4.33.

On to DGWIRVSSDNVADLHEKCSGSTP, for which the protein stability index amounted to 3.09.

Take DGWIRVSSDNVADLHPKYSGSTP: the protein stability index worked out at 3.32.

In the case of DGWIRVSSDNVADLHCKYSGSTP, the protein stability index is 2.62.

As for DGWIRVSSDNVADLHAKYSGSTP, the protein stability index stood at 2.5.

Consider DGWIRVSSDNVADLHQKYSGSTP, for which the protein stability index came out at 2.87.

Turning to DGWIRVSSDNVADLHNKYSGSTP, the protein stability index came to 2.95.

With DGWIRVSSDNVADLHSKYSGSTP, the protein stability index is 2.64.

Turning to DGWIRVSSDNVADLHYKYSGSTP, the protein stability index came to 2.87.

As to DGWIRVSSDNVADLHMKYSGSTP, the protein stability index was determined as 2.53.

With DGWIRVSSDNVADLHHKYSGSTP, the protein stability index turned out to be 2.67.

Turning to DGWIRVSSDNVADLHDKYSGSTP, the protein stability index came out at 2.58.

As to DGWIRVSSDNVADLHKKYSGSTP, the protein stability index was 3.12.

Consider DGWIRVSSDNVADLHIKYSGSTP, for which the protein stability index worked out at 2.58.

DGWIRVSSDNVADLHLKYSGSTP: the protein stability index turned out to be 2.76.

As for DGWIRVSSDNVADLHTKYSGSTP, the protein stability index came out at 2.8.

Take DGWIRVSSDNVADLHFKYSGSTP: the protein stability index came out at 2.46.

Regarding DGWIRVSSDNVADLHGKYSGSTP, the protein stability index amounted to 3.13.

With DGWIRVSSDNVADLHWKYSGSTP, the protein stability index is 2.65.

Consider DGWIRVSSDNVADLHRKYSGSTP, for which the protein stability index came out at 2.97.

As to DGWIRVSSDNVADLHVKYSGSTP, the protein stability index is 2.92.

On to DGWIRVSSDNVADLHEKYSFSTP, for which the protein stability index is 3.63.

Consider DGWIRVSSDNVADLHEKYSDSTP, for which the protein stability index stood at 4.65.

As to DGWIRVSSDNVADLHEKYSVSTP, the protein stability index is 3.82.

On to DGWIRVSSDNVADLHEKYSSSTP, for which the protein stability index is 3.44.

Consider DGWIRVSSDNVADLHEKYSWSTP, for which the protein stability index worked out at 2.9.

Regarding DGWIRVSSDNVADLHEKYSQSTP, the protein stability index worked out at 3.43.

Regarding DGWIRVSSDNVADLHEKYSCSTP, the protein stability index was found to be 2.82.

With DGWIRVSSDNVADLHEKYSKSTP, the protein stability index was found to be 3.93.

Consider DGWIRVSSDNVADLHEKYSYSTP, for which the protein stability index came out at 3.29.

On to DGWIRVSSDNVADLHEKYSISTP, for which the protein stability index was 3.86.

Consider DGWIRVSSDNVADLHEKYSESTP, for which the protein stability index stood at 4.64.

DGWIRVSSDNVADLHEKYSMSTP: the protein stability index came to 3.63.

As for DGWIRVSSDNVADLHEKYSLSTP, the protein stability index is 3.72.

For the variant DGWIRVSSDNVADLHEKYSNSTP, the protein stability index stood at 3.92.

In the case of DGWIRVSSDNVADLHEKYSHSTP, the protein stability index worked out at 3.79.

Consider DGWIRVSSDNVADLHEKYSPSTP, for which the protein stability index was 3.99.

On to DGWIRVSSDNVADLHEKYSASTP, for which the protein stability index stood at 3.8.

Turning to DGWIRVSSDNVADLHEKYSTSTP, the protein stability index was 4.17.

For the variant DGWIRVSSDNVADLHEKYSRSTP, the protein stability index stood at 4.17.

With DGWIRVSSDNVADLNEKYSGSTP, the protein stability index worked out at 2.92.

With DGWIRVSSDNVADLCEKYSGSTP, the protein stability index was found to be 2.73.

DGWIRVSSDNVADLTEKYSGSTP: the protein stability index worked out at 2.77.

With DGWIRVSSDNVADLEEKYSGSTP, the protein stability index worked out at 2.98.

Turning to DGWIRVSSDNVADLYEKYSGSTP, the protein stability index is 2.42.

Consider DGWIRVSSDNVADLWEKYSGSTP, for which the protein stability index turned out to be 2.39.

DGWIRVSSDNVADLFEKYSGSTP: the protein stability index came out at 2.82.

For DGWIRVSSDNVADLREKYSGSTP, the protein stability index stood at 2.33.

With DGWIRVSSDNVADLLEKYSGSTP, the protein stability index was found to be 2.66.

On to DGWIRVSSDNVADLQEKYSGSTP, for which the protein stability index stood at 2.76.

Regarding DGWIRVSSDNVADLDEKYSGSTP, the protein stability index worked out at 2.85.

With DGWIRVSSDNVADLSEKYSGSTP, the protein stability index was found to be 2.47.

On to DGWIRVSSDNVADLMEKYSGSTP, for which the protein stability index is 2.64.

DGWIRVSSDNVADLGEKYSGSTP: the protein stability index came to 2.71.

DGWIRVSSDNVADLKEKYSGSTP: the protein stability index was determined as 2.77.

In the case of DGWIRVSSDNVADLPEKYSGSTP, the protein stability index came to 3.06.

On to DGWIRVSSDNVADLVEKYSGSTP, for which the protein stability index was determined as 2.4.

With DGWIRVSSDNVADLIEKYSGSTP, the protein stability index came to 2.68.

In the case of DGWIRVSSDNVADLAEKYSGSTP, the protein stability index came out at 2.51.

Turning to DGWIRVSSDNMADLHEKYSGSTP, the protein stability index was 2.64.

Regarding DGWIRVSSDNNADLHEKYSGSTP, the protein stability index amounted to 2.69.

For DGWIRVSSDNQADLHEKYSGSTP, the protein stability index came to 2.38.

On to DGWIRVSSDNYADLHEKYSGSTP, for which the protein stability index came out at 2.67.

In the case of DGWIRVSSDNSADLHEKYSGSTP, the protein stability index was 2.47.

As for DGWIRVSSDNWADLHEKYSGSTP, the protein stability index came out at 2.4.

In the case of DGWIRVSSDNLADLHEKYSGSTP, the protein stability index was 2.21.

On to DGWIRVSSDNPADLHEKYSGSTP, for which the protein stability index came to 2.73.

On to DGWIRVSSDNTADLHEKYSGSTP, for which the protein stability index is 2.48.

Take DGWIRVSSDNRADLHEKYSGSTP: the protein stability index was 1.87.

Turning to DGWIRVSSDNKADLHEKYSGSTP, the protein stability index was determined as 1.78.
